Experimental data from article PMC11526107, “ZC3HAV1 facilitates STING activation and enhances inflammation” (Communications Biology, 2024).

B1: Stimulator of interferon genes (STING), endogenous in mouse peritoneal macrophages (natural protein, UniProt Q3TBT3 1-378, looked up)
chain: MPYSNLHPAIPRPRGHRSKYVALIFLVASLMILWVAKDPPNHTLKYLALHLASHELGLLLKNLCCLAEELCHVQSRYQGSYWKAVRACLGCPIHCMAMILLSSYFYFLQNTADIYLSWMFGLLVLYKSLSMLLGLQSLTPAEVSAVCEEKKLNVAHGLAWSYYIGYLRLILPGLQARIRMFNQLHNNMLSGAGSRRLYILFPLDCGVPDNLSVVDPNIRFRDMLPQQNIDRAGIKNRVYSNSVYEILENGQPAGVCILEYATPLQTLFAMSQDAKAGFSREDRLEQAKLFCRTLEEILEDVPESRNNCRLIVYQEPTDGNSFSLSQEVLRHIRQEEKEEVTMNAPMTSVAPPPSVLSQEPRLLISGMDQPLPLRTDLI
notes: mouse STING, endogenous; also called TMEM173; MITA; source: endogenous, mouse peritoneal macrophage lysate
B2: exogenous STING in HEK293T cells (native PAGE, Fig. 3i) (natural protein, UniProt Q3TBT3 1-378, looked up)
chain: B1 chain
notes: Probably the same construct as m9 or m10; the text and legend say only 'the indicated plasmids'; source: HEK293T, transfected, in lysate

How the values were obtained:
[1] = biological target: the molecule itself; test: native gel or EMSA; native PAGE (7% gel, no SDS, sodium deoxycholate in the cathode buffer) and immunoblot of lysates of mouse peritoneal macrophages after HSV-1, ISD or cGAMP; WT against Zc3hav1^-/- or Zc3hav1 siRNA (dimer and oligomer decreased)
[2] = biological target: the molecule itself; test: native gel or EMSA; native PAGE and immunoblot of lysates of HEK293T cells transfected with STING with or without ZAPS or ZAPL, stimulated with DMXAA

Protein | stoichiometry N [1] | stoichiometry N [2]
B1 | 2 | 
B2 |  | 2
